Paper PMC11109279, “Heliorhodopsin-mediated light-modulation of ABC transporter” (Nature Communications, 2024)

What was measured:
OmrDE [1] = target: T1, OmrDE (Ornithinimicrobium cerasi, UniProt A0A285VW85+A0A285VWG3); experiment: ATP hydrolysis, colorimetric Pi (phosphomolybdate); assay type: biochemical; details: read-out: Km (mM, ATP); Mg-ATP (MgSO4:ATP 1.5:1), pH 7.0, 25 °C, 0.02% DDM; no OcHeR
T1 construct: gene SAMN05421879_12812; co-expressed heterodimer of two half-transporters; codon-optimized, E. coli C43(DE3), DDM-solubilized, Ni-NTA
From the text: ATP hydrolysis, colorimetric Pi (phosphomolybdate) on OmrDE

OmrDE with OcHeR WT = target: T2, OmrDE with OcHeR WT (Ornithinimicrobium cerasi, UniProt A0A285VW85+A0A285VWG3); experiment: ATP hydrolysis, colorimetric Pi (phosphomolybdate); assay type: biochemical; details: read-out: Km (mM, ATP); Mg-ATP (MgSO4:ATP 1.5:1), pH 7.0, 25 °C, 0.02% DDM; OcHeR WT 1:1, dark
T2 construct: gene SAMN05421879_12812; E. coli C43(DE3), DDM, Ni-NTA; with Heliorhodopsin
T2 sequence (A0A285VW85 1-577): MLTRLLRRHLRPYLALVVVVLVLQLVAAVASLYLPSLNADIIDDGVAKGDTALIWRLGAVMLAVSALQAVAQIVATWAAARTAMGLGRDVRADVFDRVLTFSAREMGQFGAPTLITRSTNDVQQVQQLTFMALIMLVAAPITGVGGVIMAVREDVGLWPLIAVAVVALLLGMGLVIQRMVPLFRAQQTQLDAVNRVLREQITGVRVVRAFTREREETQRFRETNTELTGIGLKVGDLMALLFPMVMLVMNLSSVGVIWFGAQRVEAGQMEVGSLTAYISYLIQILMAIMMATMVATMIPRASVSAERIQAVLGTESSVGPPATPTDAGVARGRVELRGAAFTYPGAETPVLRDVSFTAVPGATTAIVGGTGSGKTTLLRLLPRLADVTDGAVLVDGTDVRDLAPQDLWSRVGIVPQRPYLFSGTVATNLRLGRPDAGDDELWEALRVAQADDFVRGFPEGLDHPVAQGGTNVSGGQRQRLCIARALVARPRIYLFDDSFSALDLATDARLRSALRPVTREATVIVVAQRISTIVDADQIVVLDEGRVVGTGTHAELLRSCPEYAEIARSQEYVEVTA
T2 sequence (A0A285VWG3 1-661): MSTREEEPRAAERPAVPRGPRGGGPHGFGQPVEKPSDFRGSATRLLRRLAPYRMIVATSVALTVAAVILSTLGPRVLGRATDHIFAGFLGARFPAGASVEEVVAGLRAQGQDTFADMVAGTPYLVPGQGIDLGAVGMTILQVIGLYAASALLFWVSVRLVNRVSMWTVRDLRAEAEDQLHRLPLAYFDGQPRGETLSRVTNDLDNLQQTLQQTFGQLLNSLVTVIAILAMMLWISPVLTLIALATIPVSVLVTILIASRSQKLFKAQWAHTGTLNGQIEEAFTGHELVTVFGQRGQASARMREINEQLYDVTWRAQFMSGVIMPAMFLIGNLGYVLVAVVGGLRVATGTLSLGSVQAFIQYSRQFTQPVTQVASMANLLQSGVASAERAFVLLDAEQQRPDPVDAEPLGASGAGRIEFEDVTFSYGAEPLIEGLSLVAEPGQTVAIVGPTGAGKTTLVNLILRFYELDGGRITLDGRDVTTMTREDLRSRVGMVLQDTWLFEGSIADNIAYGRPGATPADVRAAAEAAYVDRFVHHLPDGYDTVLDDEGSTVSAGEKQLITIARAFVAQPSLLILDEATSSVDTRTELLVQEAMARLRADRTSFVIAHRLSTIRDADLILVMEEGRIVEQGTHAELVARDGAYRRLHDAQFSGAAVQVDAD
T2 sequence (A0A285W045 1-266 partner): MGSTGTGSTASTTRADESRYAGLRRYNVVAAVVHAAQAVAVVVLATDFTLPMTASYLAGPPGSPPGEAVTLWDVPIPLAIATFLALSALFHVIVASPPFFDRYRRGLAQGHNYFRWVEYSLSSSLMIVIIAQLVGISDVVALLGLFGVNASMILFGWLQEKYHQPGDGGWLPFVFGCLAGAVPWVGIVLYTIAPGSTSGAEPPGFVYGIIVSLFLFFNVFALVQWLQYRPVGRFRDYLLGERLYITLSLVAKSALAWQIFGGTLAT
From the text: ATP hydrolysis, colorimetric Pi (phosphomolybdate) on OmrDE with OcHeR WT

[2] = target: heterodimeric multidrug resistance ABC transporter OmrDE (Omithinimicrobium cerasi strain USBA17B2); experiment: ITC; OcHeR injected into the Omr protein; 25 °C, 500 rpm; buffer SD; MicroCal ITC200; one site binding model (sequential binding site model for R233Q); perfect saturation was not achieved
OcHeR = target: T3, OcHeR (Ornithinimicrobium cerasi, UniProt A0A285W045); experiment: UV-visible absorption spectroscopy of purified pigment; assay type: binding; details: covalent; Schiff base to K252; neutral pH
T3 construct: gene SAMN05421879_12810; purified from E. coli C43(DE3) grown with all-trans-retinal; DDM, Ni-NTA; homodimer
T3 sequence (A0A285W045 1-266): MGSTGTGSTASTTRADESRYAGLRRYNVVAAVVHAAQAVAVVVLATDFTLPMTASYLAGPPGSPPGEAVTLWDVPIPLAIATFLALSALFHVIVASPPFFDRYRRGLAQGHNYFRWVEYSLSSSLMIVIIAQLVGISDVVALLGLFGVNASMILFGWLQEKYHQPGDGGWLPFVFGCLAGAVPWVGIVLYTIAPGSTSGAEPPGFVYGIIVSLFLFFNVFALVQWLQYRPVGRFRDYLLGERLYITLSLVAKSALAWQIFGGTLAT

OmrDE [3] = target: T1, OmrDE; experiment: ATP hydrolysis, colorimetric Pi (phosphomolybdate); assay type: biochemical
[4] = target: T4, Omithinimicrobium cerasi strain USBA17B2 heliorhodopsin (OcHeR) WT (Omithinimicrobium cerasi strain USBA17B2, UniProt A0A285W045 1-266, retinal Schiff base linked to K252); experiment: ITC; OcHeR injected into the Omr protein; 25 °C, 500 rpm; buffer SD; MicroCal ITC200; one site binding model (sequential binding site model for R233Q); perfect saturation was not achieved; details: both partners purified
T4 construct: gene codon-optimized for E. coli and chemically synthesized; source: E. coli C43 (DE3), purified (DDM-solubilized membrane fraction, Ni2+-NTA agarose)
T4 sequence (looked up): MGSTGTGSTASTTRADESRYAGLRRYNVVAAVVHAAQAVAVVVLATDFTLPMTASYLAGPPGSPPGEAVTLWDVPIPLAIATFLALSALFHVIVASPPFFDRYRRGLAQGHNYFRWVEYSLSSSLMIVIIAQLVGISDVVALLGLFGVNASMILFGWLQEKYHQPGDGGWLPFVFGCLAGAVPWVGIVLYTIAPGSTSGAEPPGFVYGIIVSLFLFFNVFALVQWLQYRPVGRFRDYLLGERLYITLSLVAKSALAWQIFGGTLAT

Glu118 (position 118, …) = experiment: UV-vis; details: not stated for the titration. Purified protein was kept in buffer SD with 150 mM NaCl.; not stated for the titration. Purification buffer SD was 150 mM NaCl, 50 mM Tris-HCl pH 7.0, 0.02% DDM. pH was adjusted by adding HCl and NaOH.; Dark/ground state, retinal-bound, detergent-solubilised, without OmrDE
[5] = target: T5, heterodimeric multidrug resistance ABC transporter OmrDE (Omithinimicrobium cerasi strain USBA17B2, UniProt A0A285VW85 1-577; A0A285VWG3 1-661); experiment: cell-based or functional assay
T5 sequence (looked up) 1: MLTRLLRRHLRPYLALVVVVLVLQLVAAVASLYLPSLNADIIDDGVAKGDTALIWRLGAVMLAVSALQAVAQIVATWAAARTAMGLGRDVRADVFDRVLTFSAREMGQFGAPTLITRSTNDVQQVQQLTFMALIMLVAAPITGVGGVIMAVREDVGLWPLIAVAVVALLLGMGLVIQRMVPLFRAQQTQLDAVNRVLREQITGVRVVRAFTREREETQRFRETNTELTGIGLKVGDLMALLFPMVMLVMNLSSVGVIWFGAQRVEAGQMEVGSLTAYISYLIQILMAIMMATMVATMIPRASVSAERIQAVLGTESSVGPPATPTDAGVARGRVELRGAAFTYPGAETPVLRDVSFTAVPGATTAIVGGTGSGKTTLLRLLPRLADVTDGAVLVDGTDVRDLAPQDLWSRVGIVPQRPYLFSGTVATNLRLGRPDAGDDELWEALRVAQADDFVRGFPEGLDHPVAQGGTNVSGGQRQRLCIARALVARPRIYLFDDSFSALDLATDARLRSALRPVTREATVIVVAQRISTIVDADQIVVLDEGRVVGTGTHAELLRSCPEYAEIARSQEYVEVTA
T5 sequence (looked up) 2: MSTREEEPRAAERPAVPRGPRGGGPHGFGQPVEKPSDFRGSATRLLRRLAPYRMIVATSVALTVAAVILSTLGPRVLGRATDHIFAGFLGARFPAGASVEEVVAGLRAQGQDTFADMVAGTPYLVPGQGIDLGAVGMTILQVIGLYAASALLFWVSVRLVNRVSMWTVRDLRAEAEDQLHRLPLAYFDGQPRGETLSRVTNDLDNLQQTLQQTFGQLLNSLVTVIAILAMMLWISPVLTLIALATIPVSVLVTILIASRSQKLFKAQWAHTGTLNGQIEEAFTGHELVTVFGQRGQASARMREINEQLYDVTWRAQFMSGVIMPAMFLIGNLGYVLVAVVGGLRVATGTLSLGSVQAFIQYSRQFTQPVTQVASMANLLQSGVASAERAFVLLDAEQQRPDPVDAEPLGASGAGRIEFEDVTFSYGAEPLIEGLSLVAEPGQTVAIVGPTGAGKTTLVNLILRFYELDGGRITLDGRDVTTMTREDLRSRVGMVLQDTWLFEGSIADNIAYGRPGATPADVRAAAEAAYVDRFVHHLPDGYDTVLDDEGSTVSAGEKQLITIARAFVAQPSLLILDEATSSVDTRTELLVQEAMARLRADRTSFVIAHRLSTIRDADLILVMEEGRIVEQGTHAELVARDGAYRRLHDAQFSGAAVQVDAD

Molecule: Nc1ncnc2c1ncn2[C@@H]1O[C@H](COP(=O)(O)OP(=O)(O)OP(=O)(O)O)[C@@H](O)[C@H]1O [ATP]
- Km (OmrDE [1]): 19.2 ± 12.3 mM
- Km (OmrDE with OcHeR WT): 10.4 ± 7 mM

Molecule: OcHeR R233Q (natural protein)
- Kd of the first binding (sequential binding site model) [2]: 42.9 µM
- Kd of the second binding (sequential binding site model) [2]: 25.3 µM
- dH of the first binding (sequential binding site model) [2]: 5.9 kcal/mol
- dH of the second binding (sequential binding site model) [2]: 38.7 kcal/mol

Molecule: CC1=C(/C=C/C(C)=C/C=C/C(C)=C/C=O)C(C)(C)CCC1 [all-trans-retinal]
- retinal attachment site (OcHeR): retinal Schiff base linked to K252 of OcHeR

Molecule: N=C(N)c1ccc(-c2cc3ccc(C(=N)N)cc3[nH]2)cc1 [DAPI]
- IC50 (OmrDE [3]): 47.4 µM

Molecule: OcHeR R229Q (natural protein)
- Kd [2]: 5.1 µM
- dH [2]: 8.6 kcal/mol

Molecule: OcHeR R235Q (natural protein)
- Kd [2]: 26 µM
- dH [2]: 2.4 kcal/mol

Molecule: OcHeR W225A (natural protein)
- Kd [2]: 16.9 µM
- dH [2]: 11.8 kcal/mol

B1: NBD-truncated OmrDE (OmrD^tcE^tc) (complex)
chain 1: MLTRLLRRHLRPYLALVVVVLVLQLVAAVASLYLPSLNADIIDDGVAKGDTALIWRLGAVMLAVSALQAVAQIVATWAAARTAMGLGRDVRADVFDRVLTFSAREMGQFGAPTLITRSTNDVQQVQQLTFMALIMLVAAPITGVGGVIMAVREDVGLWPLIAVAVVALLLGMGLVIQRMVPLFRAQQTQLDAVNRVLREQITGVRVVRAFTREREETQRFRETNTELTGIGLKVGDLMALLFPMVMLVMNLSSVGVIWFGAQRVEAGQMEVGSLTAYISYLIQILMAIMMATMVATMIPRASVSAERIQAVLGTESSVGPPATPTDAGVARGR
chain 2: MSTREEEPRAAERPAVPRGPRGGGPHGFGQPVEKPSDFRGSATRLLRRLAPYRMIVATSVALTVAAVILSTLGPRVLGRATDHIFAGFLGARFPAGASVEEVVAGLRAQGQDTFADMVAGTPYLVPGQGIDLGAVGMTILQVIGLYAASALLFWVSVRLVNRVSMWTVRDLRAEAEDQLHRLPLAYFDGQPRGETLSRVTNDLDNLQQTLQQTFGQLLNSLVTVIAILAMMLWISPVLTLIALATIPVSVLVTILIASRSQKLFKAQWAHTGTLNGQIEEAFTGHELVTVFGQRGQASARMREINEQLYDVTWRAQFMSGVIMPAMFLIGNLGYVLVAVVGGLRVATGTLSLGSVQAFIQYSRQFTQPVTQVASMANLLQSGVASAERAFVLLDAEQQRPDPVDAEPLGASGAGR
- Kd [4]: 38.9 µM

B2: Heliorhodopsin OcHeR (Ornithinimicrobium cerasi strain USBA17B2 (spelled 'Omithinimicrobium cerasi' in the main text)) (protein)
chain: MGSTGTGSTASTTRADESRYAGLRRYNVVAAVVHAAQAVAVVVLATDFTLPMTASYLAGPPGSPPGEAVTLWDVPIPLAIATFLALSALFHVIVASPPFFDRYRRGLAQGHNYFRWVEYSLSSSLMIVIIAQLVGISDVVALLGLFGVNASMILFGWLQEKYHQPGDGGWLPFVFGCLAGAVPWVGIVLYTIAPGSTSGAEPPGFVYGIIVSLFLFFNVFALVQWLQYRPVGRFRDYLLGERLYITLSLVAKSALAWQIFGGTLAT
- pKa (Glu118 (position 118, …)): 2.9

B3: OcHeR R102Q (natural protein)
chain: MGSTGTGSTASTTRADESRYAGLRRYNVVAAVVHAAQAVAVVVLATDFTLPMTASYLAGPPGSPPGEAVTLWDVPIPLAIATFLALSALFHVIVASPPFFDQYRRGLAQGHNYFRWVEYSLSSSLMIVIIAQLVGISDVVALLGLFGVNASMILFGWLQEKYHQPGDGGWLPFVFGCLAGAVPWVGIVLYTIAPGSTSGAEPPGFVYGIIVSLFLFFNVFALVQWLQYRPVGRFRDYLLGERLYITLSLVAKSALAWQIFGGTLAT
modifications: retinal Schiff base linked to K252
- kcat/Km of ATP hydrolysis of purified OmrDE with OcHeR R102Q (1:1), absence of light [5]: 21.4 M^−1 S^−1
- kcat/Km of ATP hydrolysis of purified OmrDE with OcHeR R102Q (1:1), presence of light (532 nm) [5]: 18.1 M^−1 S^−1
